Experimental data: patent US20040235717A1, “Suppression of androgen receptor transactivation through new pathways to ar and ar coactivators and repressors” (priority 2001, published 2004)
“Also recorded” adds a separate entry of the source.

Experiments:
PSA mRNA expression = PSA mRNA expression in LNCaP cells, Northern blot; type: cell-based
AR transactivation [1] = assay: AR transactivation with Smad3/Smad4, CAT reporters in PC3-AR2, PC-3 and LNCaP cells; type: cell-based, human
Description: 32. […] LNCaP cell were transfected with Smad3 or Smad4 expression vector instead of PC-3(AR)2 cells in experiments otherwise identical with those in A (B), PC-3(AR)2 cells stably transfected with AR were over-expressed with the indicated amounts of Smad3 or Smad4 or SRC-1. 3 μg of MMTV-CAT was used as a reporter plasmid in all experiments. All values represent the averages±SD of four independent experiments. […] PSA expression level was determined by Northern blotting. The probe was obtained from exon 1 of the PSA gene and labeled with [α-^32P] dCTP. A β-actin probe was used as a control for equivalent mRNA loading. (C, Table 1) The RNA samples from (A) were reverse transcribed to cDNAs and all of the samples were subjected to real-time CR using an ABI Prism 7700 Sequence Detection System (Perkin-Elmer Applied bio systems). PCR was performed using the SYBR Green PCR Core Reagents kit (Perkin-Elmer Applied Bio systems). PSA and β-actin forward, reverse primers concentrations were 2.5 μM. To reduce variability between replicates, PCR premixes which contained all reagents except for total RNA were prepared and aliquoted into 1.5 ml microfuge tubes. Specific PCR amplification products were detected by the fluorescent double-stranded DNA-binding dye SYBR Green core reagent kit. Experiments were performed with triplicates for each data point.
(§1) 37. […] (A) PC3-AR2, SW480·C7, and PC-3 cells were transiently co-transfected with either MMTV-CAT, PSA-CAT, 5XARE-CAT, or (TAT)2-CAT (3 μg), in the presence of AR, Smad3, Smad4 or Smad3/Smad4 as indicated. Each CAT activity is presented relative to the transactivation observed in the absence of Smad3. All values represent the mean±SD of three independent experiments.
333. Human prostate cancer DU145 cells and PC-3 cells were maintained in Dulbecco's Minimum Essential Medium containing penicillin (25 U/ml), streptomycin (25 μg/ml), and 5% fetal calf serum. Transfections were performed using the calcium phosphate precipitation method and cells were harvested after 24 h for the chloramphenicol acetyltransferase (CAT) assay, as described previously (Kang, et al. (1999) J. Biol. Chem. 274, 8570-8576). The CAT activity was visualized and quantitated by STORM 840 (Molecular Dynamics). At least three independent experiments were carried out in each case. The SW480·C7 cells and PC-3(AR)2 cells are the gifts from Dr. Eric J. Stanbridge and Dr. T. J. Brown

AR transactivation [2] = details: PC-3 and CV1 cells; Hayes et al.; cited from earlier work
[3] = tested on: wtAR, mtARt877a, PR, VDR, ER transactivation; assay: Steroid receptor transactivation with Smad3 in DU145 cells (wtAR, mtARt877a, PR, VDR, ER); type: cell-based, human
AR transactivation [4] = assay: AR transactivation reporter assays in SW480.7 / SW480·C7 cells; type: cell-based; details: for Effect on ARE reporter activity: SW480·C7 cells
Description: as §1

B1: Smad3: a downstream mediator of the TGF-β signaling pathway (protein)
chain: MSSILPFTPPIVKRLLGWKKGEQNGQEEKWCEKAVKSLVKKLKKTGQLDELEKAITTQNVNTKCITIPRSLDGRLQVSHRKGLPHVIYCRLWRWPDLHSHHELRAMELCEFAFNMKKDEVCVNPYHYQRVETPVLPPVLVPRHTEIPAEFPPLDDYSHSIPENTNFPAGIEPQSNIPETPPPGYLSEDGETSDHQMNHSMDAGSPNLSPNPMSPAHNNLDLQPVTYCEPAFWCSISYYELNQRVGETFHASQPSMTVDGFTDPSNSERFCLGLLSNVNRNAAVELTRRHIGRGVRLYYIGGEVFAECLSDSAIFVQSPNCNQRYGWHPATVCKIPPGCNLKIFNNQEFAALLAQSVNQGFEAVYQLTRMCTIRMSFVKGWGAEYRRQTVTSTPCWIELHLNGPLQWLDKVLTQMGSPSIRCSSVS
PSA mRNA expression; absence of androgen
  Effect on PSA expression: failed to induce PSA expression
PSA mRNA expression; presence of androgen
  Effect on androgen-induced PSA mRNA expression: further enhance PSA expression; also recorded: further enhances DHT-induced PSA mRNA expression
AR transactivation [1]; PC3-AR2, MMTV-CAT, 10^−8 M DHT
  Effect on androgen-activated AR transactivation: further enhanced
AR transactivation [1]; PC-3 cells
  Effect on ARE reporters (MMTV, PSA, 5X-ARE, TAT2-ARE): enhance all these reporters
AR transactivation [2]
  Effect on AR transactivation: suppress AR transactivation
[3]
  Enhancement of AR transactivation compared to ARA70: relatively stronger enhancement effect
[3]; 10 nM DHT
  Enhancement of wtAR transactivation: 3-4 fold
[3]; 10^−8 M cognate ligand
  Effect on transactivation of steroid receptors: significantly enhance the transactivation of AR, the progesterone receptor, and VDR
AR transactivation [4]; MMTV-ARE reporter
  Effect on ARE reporter activity: only enhance MMTV-ARE reporter activity
AR transactivation [4]; PSA-ARE, 5X-ARE and TAT2-ARE reporters
  Effect on ARE reporter activity: some slight repression
AR transactivation [4]; SW480.7 cells, MMTV-CAT
  Effect on ligand-dependent transactivation of AR: increased the ligand-dependent transactivation of AR
